Source: article PMC7580981

Target: IBV polymerase trimeric complex (Pol3): PA-His, PB1, PB2 (influenza B virus)
Assay: SPR; Biacore T200; […]; running buffer HBS-EP+; 1:1 fit model

human ANP32A, purified (GST cleaved), sequence (P39687 whole entry): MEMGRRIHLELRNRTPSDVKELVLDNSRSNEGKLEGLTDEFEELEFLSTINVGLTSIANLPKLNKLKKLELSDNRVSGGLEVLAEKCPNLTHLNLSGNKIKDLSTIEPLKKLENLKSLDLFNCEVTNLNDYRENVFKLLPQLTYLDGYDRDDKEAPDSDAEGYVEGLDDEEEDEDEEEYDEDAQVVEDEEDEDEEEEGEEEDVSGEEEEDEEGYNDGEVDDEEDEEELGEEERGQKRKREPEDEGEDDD

Q: “chicken ANP32A, purified (GST cleaved) (natural protein)” was tested. Which KD of chANP32A relative to that of huANP32A (fold) did it give?
A: 3 fold

Q: Which Kd does the source give for “human ANP32A with the 33-amino-acid insert, purified (GST cleaved)” here?
A: 101 nM

Q: With “human ANP32A, purified (GST cleaved) (from UniProt P39687 1-249) (natural protein)” as the substance, how does the Kd read?
A: 54.2 nM

Q: And the ka relative to chANP32A and huANP32A+33 (fold)?
A: 2 fold
